Numbering of substitutions follows the chain as printed.

Test [1] concerns the target T1, recombinant human CD3 epsilon/delta heterodimer (human, UniProt P07766 23-126; P04234 22-105).
T1 construct: Recombinant protein in solution (200-50 nM) in the Octet assay; also called hCD3 E/D; human CD3E/D
The experiment in a line: Octet BLI, mAb on FAB2G sensor, hCD3 E/D 200-50 nM; R^2 1.00.

In test [2] the target is T2, recombinant human CD3 epsilon/gamma heterodimer (human, UniProt P07766 23-126; P09693 23-116).
T2 construct: Recombinant protein in solution (200-50 nM) in the Octet assay; also called hCD3 E/G
Kind of test: Octet BLI, mAb on FAB2G sensor, hCD3 E/G 200-50 nM; R^2 0.94.
Method: (§1) Samples were evaluated by flow cytometry analysis against Jurkat and human Pan-T cells (FIG. 1B) as well as by Octet against recombinant human CD3 proteins to evaluate apparent affinities and binding off-rates (Table 6, infra).

Test [3] has as its target T1, recombinant human CD3 epsilon/delta …. The experiment in a line: Octet BLI, mAb on FAB2G sensor, hCD3 E/D 200-50 nM; R^2 0.97.
Method: as §1
Test [4] has as its target T2, recombinant human CD3 epsilon/gamma …. Kind of test: Octet BLI, mAb on FAB2G sensor, hCD3 E/G 200-50 nM; R^2 1.00.
Method: as §1
The target of test [5] is T3, CD3 on Jurkat wild-type cells (UniProt P07766 23-207; P04234 22-171; P09693 23-182).
T3 construct: whole, on cells; also called Jurkat WT
Kind of test: flow cytometry on Jurkat WT cells, antibody at 1 ug/ml.

In test [6] the target is T3, CD3 on Jurkat wild-type cells. The experiment in a line: flow cytometry on Jurkat WT cells, antibody at 10 ug/ml.
The target of test [7] is T4, CD33 on KILR-HL60 cells (UniProt P20138 18-364, limits assumed).
T4 construct: whole, on cells; Target of the gemtuzumab arm; also called CD33 expressing cells
Kind of test: flow cytometry on KILR-HL60 (CD33 expressing) cells, antibody at 10 ug/ml.

The target of test [8] is T4, CD33 on KILR-HL60 cells. The experiment in a line: flow cytometry on KILR-HL60 (CD33 expressing) cells, antibody at 1 ug/ml.
The target of test [9] is T2, recombinant human CD3 epsilon/gamma …. The experiment in a line: Octet BLI, mAb on FAB2G sensor, hCD3 E/G 200-50 nM; R^2 0.98.
Method: as §1

T3 sequence (P07766 23-207, chain 1 of 3): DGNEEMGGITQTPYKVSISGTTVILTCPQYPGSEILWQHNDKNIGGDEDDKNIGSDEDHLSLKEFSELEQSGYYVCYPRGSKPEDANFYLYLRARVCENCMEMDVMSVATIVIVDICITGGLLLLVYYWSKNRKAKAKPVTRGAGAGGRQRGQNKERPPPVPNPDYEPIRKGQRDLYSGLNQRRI
T3 sequence (P04234 22-171, chain 2 of 3): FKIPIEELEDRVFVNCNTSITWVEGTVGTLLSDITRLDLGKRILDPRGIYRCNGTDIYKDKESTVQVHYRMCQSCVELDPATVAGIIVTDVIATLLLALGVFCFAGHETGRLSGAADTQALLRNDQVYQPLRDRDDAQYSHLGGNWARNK
T3 sequence (P09693 23-182, chain 3 of 3): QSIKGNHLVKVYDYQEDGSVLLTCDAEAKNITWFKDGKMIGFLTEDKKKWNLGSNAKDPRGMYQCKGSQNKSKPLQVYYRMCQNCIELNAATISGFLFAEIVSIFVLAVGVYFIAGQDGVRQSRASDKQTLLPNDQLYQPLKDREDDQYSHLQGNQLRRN
T4 sequence (P20138 18-364 limits assumed): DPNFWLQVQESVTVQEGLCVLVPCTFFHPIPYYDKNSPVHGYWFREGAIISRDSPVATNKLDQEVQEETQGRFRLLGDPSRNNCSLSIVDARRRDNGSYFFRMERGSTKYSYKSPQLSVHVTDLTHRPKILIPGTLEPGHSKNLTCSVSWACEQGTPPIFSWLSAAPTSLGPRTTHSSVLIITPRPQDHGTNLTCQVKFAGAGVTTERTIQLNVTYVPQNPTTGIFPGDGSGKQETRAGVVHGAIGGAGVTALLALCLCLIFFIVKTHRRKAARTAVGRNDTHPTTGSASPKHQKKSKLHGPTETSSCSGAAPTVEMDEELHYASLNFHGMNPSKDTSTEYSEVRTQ
T1 sequence (P07766 23-126, stated change not applied, chain 1 of 2): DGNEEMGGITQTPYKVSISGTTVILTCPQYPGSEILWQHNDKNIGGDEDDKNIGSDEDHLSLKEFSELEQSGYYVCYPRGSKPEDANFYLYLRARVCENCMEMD
T1 sequence (P04234 22-105, stated change not applied, chain 2 of 2): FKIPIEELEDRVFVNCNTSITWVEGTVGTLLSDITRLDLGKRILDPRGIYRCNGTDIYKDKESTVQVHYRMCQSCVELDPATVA
T2 sequence (P07766 23-126, chain 1 of 2): as the sequence (P07766 23-126, stated change not applied, chain 1 of 2) above
T2 sequence (P09693 23-116, chain 2 of 2): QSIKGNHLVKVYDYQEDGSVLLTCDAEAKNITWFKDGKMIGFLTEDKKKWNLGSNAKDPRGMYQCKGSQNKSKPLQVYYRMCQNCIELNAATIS

B1: ABL-CD3-1 (antibody, V domains shown)
VH: EVQLVESGGGLVKPGGSLRLSCAASGFTLSSYSMNWVRQAPGKGLEWVSSISRSGSYIYYADSVKGRFTISRDNAKNSLYLQMNSLRAEDTAVYYCAREKWELLYFDYWGQGTLVTVSS
VL: NFMLTQPHSVSESPGKTVTISCTRSSGSIASNYVQWYQQRPGSSPTTVIYEDNQRPSGVPDRFSGSIDSSSNSASLTISGLKTEDEADYYCQSYDSSNRVFGGGTKLTVL
notes: Chimeric hybridoma mAb: human V, CH1, upper hinge; mouse middle hinge, CH2, CH3
For the molecule B1, in [1], the Kd turned out to be 108 nM, the Response came to 0.31, the koff came out at 0.0157 s⁻¹ and the kon came to 145000 M⁻¹ s⁻¹. In test [2], the Kd was 1210 nM, the Response came to 0.07, the koff is 0.171 s⁻¹ and the kon was 142000 M⁻¹ s⁻¹.

B2: ABL-CD3-58 (antibody, V domains shown)
VH: EVQLVESGGGLVKPGGSLRLSCVVSGFTFSNYNMNWVRQAPGKGLEWVSSSSRSSYIYYADSVKGRFTISRDNAKNSLYLQMNSLRAEDTAIYYCAREKWELLFFDYWGQGTLVTVSS
VL: B1 VL with Y33F, Y94F
notes: as for B1
On to B2, for which, in test [1], the Kd is 44.1 nM, the Response was found to be 0.57, the off-rate constant (koff) is 0.00265 s⁻¹ and the kon is 60100 M⁻¹ s⁻¹. Moreover, in [2], the Kd was 45.2 nM, the Response was 0.28, the koff amounted to 0.00705 s⁻¹ and the kon came to 156000 M⁻¹ s⁻¹.

B3: ABL-CD3-14 (antibody, V domains shown)
VH: B1 VH with L29C, N35T, S54R, G55S, M83L, K100R
VL: B1 VL
notes: as for B1
As for B3, in test [3], the equilibrium dissociation constant (Kd) stood at 12.8 nM, the Response stood at 0.17, the koff is 0.00152 s⁻¹ and the kon stood at 119000 M⁻¹ s⁻¹. In addition, in [2], the Kd is 9.66 nM, the Response stood at 0.08, the off-rate (koff) stood at 0.00287 s⁻¹ and the kon worked out at 298000 M⁻¹ s⁻¹.

B4: ABL-CD3-19 (antibody, V domains shown)
VH: B1 VH with G55S, K100R
VL: B1 VL with Y94F, S96N
notes: as for B1
For the molecule B4, in test [1], the Kd was 23.3 nM, the Response was 0.6, the koff came out at 0.00191 s⁻¹ and the kon was determined as 81700 M⁻¹ s⁻¹. Moreover, in test [4], the Kd was found to be 62.9 nM, the Response came out at 0.4, the koff was found to be 0.00665 s⁻¹ and the kon was 106000 M⁻¹ s⁻¹.

B5: ABL-CD3-6 (antibody, V domains shown)
VH: EVQLVDSGGGLVKPGGSLRLSCAASGFTFSSYSMNWVRQAPGKGLEWVSSISSRGSYRNYADSVKGRFTISRDNAKNSLYLQMNSLRAEDTAVYYCARDRRELLLDCWGQGTLVTVSS
VL: SYELTQPPSVSVSPGQTARITCSGDALPKKYAYWYQQKSGQAPVLVIYEDSKRPSGIPERFSGSSSGTMATLTISGAQVEDEADYYCYSTDSSGNHSWVFGGGTKLTVL
notes: as for B1
As to B5, in [1], the Kd came to 69.7 nM, the Response came out at 0.3, the koff was found to be 0.0333 s⁻¹ and the kon is 477000 M⁻¹ s⁻¹. In test [4], the Kd was 138 nM, the Response amounted to 0.17, the koff was found to be 0.0779 s⁻¹ and the kon was 566000 M⁻¹ s⁻¹.

B6: CD3 × CD33-BspAb36 (bispecific antibody)
scFv-Fc: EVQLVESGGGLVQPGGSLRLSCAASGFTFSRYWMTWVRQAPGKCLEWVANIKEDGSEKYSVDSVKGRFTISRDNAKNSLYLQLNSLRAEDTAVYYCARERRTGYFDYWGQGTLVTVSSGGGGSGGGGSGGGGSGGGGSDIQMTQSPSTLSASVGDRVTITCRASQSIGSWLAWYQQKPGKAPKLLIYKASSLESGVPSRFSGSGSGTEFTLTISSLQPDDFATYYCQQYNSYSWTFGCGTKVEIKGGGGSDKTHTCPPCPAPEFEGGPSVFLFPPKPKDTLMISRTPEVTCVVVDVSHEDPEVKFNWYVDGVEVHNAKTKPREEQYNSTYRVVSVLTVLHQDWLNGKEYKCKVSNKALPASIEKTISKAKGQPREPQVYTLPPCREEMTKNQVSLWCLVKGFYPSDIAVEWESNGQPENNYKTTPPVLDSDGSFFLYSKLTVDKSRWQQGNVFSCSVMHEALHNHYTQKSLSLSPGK
heavy: EVQLVQSGAEVKKPGSSVKVSCKASGYTITDSNIHWVRQAPGQSLEWIGYIYPYNGGTDYNQKFKNRATLTVDNPTNTAYMELSSLRSEDTAFYYCVNGNPWLAYWGQGTLVTVSSASTKGPSVFPLAPSSKSTSGGTAALGCLVKDYFPEPVTVSWNSGALTSGVHTFPAVLQSSGLYSLSSVVTVPSSSLGTQTYICNVNHKPSNTKVDKRVEPKSCDKTHTCPPCPAPEFEGGPSVFLFPPKPKDTLMISRTPEVTCVVVDVSHEDPEVKFNWYVDGVEVHNAKTKPREEQYNSTYRVVSVLTVLHQDWLNGKEYKCKVSNKALPASIEKTISKAKGQPREPQVCTLPPSREEMTKNQVSLSCAVKGFYPSDIAVEWESNGQPENNYKTTPPVLDSDGSFFLVSKLTVDKSRWQQGNVFSCSVMHEALHNRFTQKSLSLSPGK
light: DIQLTQSPSTLSASVGDRVTITCRASESLDNYGIRFLTWFQQKPGKAPKLLMYAASNQGSGVPSRFSGSGSGTEFTLTISSLQPDDFATYYCQQTKEVPWSFGQGTKVEVKRTVAAPSVFIFPPSDEQLKSGTASVVCLLNNFYPREAKVQWKVDNALQSGNSQESVTEQDSKDSTYSLSSTLTLSKADYEKHKVYACEVTHQGLSSPVTKSFNRGEC
As for B6, the flow cytometry signal turned out to be 12500 in test [5], 26100 in [6], 746000 in test [7] and 569000 in test [8].

B7: CD3 × CD33-BspAb38 (bispecific antibody)
scFv-Fc: not shown
heavy: B6 heavy
light: B6 light
As to B7, the flow cytometry signal in test [5] was 23700; in test [6], 34100; in test [7], 476000; in [8], 635000.

B8: CD3 × CD33-BspAb44 (bispecific antibody)
chain 1: EVQLVESGGGLVKPGGSLRLSCAASGFTFSRYSMNWVRQAPGKCLKWVSSISSSGSYKYYADSVKGRFTISRDNAKNSLYLQMNSLRAEDTAVYYCAREPPTLGMDYWGQGTLVTVSSGGGGSGGGGSGGGGSGGGGSNFMLTQPHSVSESPGKTVTISCTRSSGSIASNYVQWYQQRPGSSPTTVIYEDNQRPSGVPDRFSGSIDSSSNSASLTISGLKTEDEADYYCQSFDNSNRVFGCGTKLTVLDKTHTCPPCPAPEFEGGPSVFLFPPKPKDTLMISRTPEVTCVVVDVSHEDPEVKFNWYVDGVEVHNAKTKPREEQYNSTYRVVSVLTVLHQDWLNGKEYKCKVSNKALPASIEKTISKAKGQPREPQVYTLPPCREEMTKNQVSLWCLVKGFYPSDIAVEWESNGQPENNYKTTPPVLDSDGSFFLYSKLTVDKSRWQQGNVFSCSVMHEALHNHYTQKSLSLSPGK
chain 2: B6 heavy
chain 3: B6 light
In the case of B8, the flow cytometry signal came out at 113000 in [5], 84800 in test [6], 475000 in [7] and 640000 in [8].

B9: CD3 × CD33-BspAb39 (bispecific antibody)
chain 1: not shown
chain 2: B6 heavy
chain 3: B6 light
With B9, the flow cytometry signal was 2160 in [5], 2740 in test [6], 572000 in test [7] and 541000 in test [8].

B10: CD3 × CD33-BspAb42 (bispecific antibody)
chain 1: EVQLVESGGGLVKPGGSLRLSCAASGFTLSSYSMNWVRQAPGKCLEWVSSISRSGSYIYYADSVKGRFTISRDNAKNSLYLQMNSLRAEDTAVYYCAREKWELLYFDYWGQGTLVTVSSGGGGSGGGGSGGGGSGGGGSNFMLTQPHSVSESPGKTVTISCTRSSGSIASNYVQWYQQRPGSSPTTVIYEDNQRPSGVPDRFSGSIDSSSNSASLTISGLKTEDEADYYCQSYDSSNRVFGCGTKLTVLDKTHTCPPCPAPEFEGGPSVFLFPPKPKDTLMISRTPEVTCVVVDVSHEDPEVKFNWYVDGVEVHNAKTKPREEQYNSTYRVVSVLTVLHQDWLNGKEYKCKVSNKALPASIEKTISKAKGQPREPQVYTLPPCREEMTKNQVSLWCLVKGFYPSDIAVEWESNGQPENNYKTTPPVLDSDGSFFLYSKLTVDKSRWQQGNVFSCSVMHEALHNHYTQKSLSLSPGK
chain 2: B6 heavy
chain 3: B6 light
Consider B10, for which the flow cytometry signal in test [5] was 12200; in test [6] it was 26400; in test [7], 485000; in [8], 453000.

B11: ABL-CD3-38 (antibody, V domains shown)
VH: QGQLQQWGAGLLKPSETLSLTCAVYGGSFSGYYWSWIRLPPGKGLEWIGEINHSGNTNYNPSLKSRVTISVDTSKNQFSLQLSSVTAADTAVYYCAKEVEIWGYFDYWGQGTLVTVSS
VL: QSVLTQPPSVSGAPGQRVTISCTGSSSNIGAGYDVHWYQQLPGTAPKLLIYGNSNRPSGVPDRFSGSKSGTSASLAITGLQAEDETDYNCQSYDSSLSGYVFGTGTKVTVL
notes: as for B1
Turning to B11, in test [3], the dissociation constant (Kd) came out at 1.41 nM, the Response stood at 0.73, the koff is 0.00035 s⁻¹ and the kon was found to be 248000 M⁻¹ s⁻¹. Also, in test [9], the Kd was determined as 1.36 nM, the Response stood at 0.73, the koff came to 0.000331 s⁻¹ and the on-rate constant (kon) is 243000 M⁻¹ s⁻¹.

(Values after patent US20260167721A1 (ABLEXIS, published 2026).)
